# Assay results reported in US20060057623.
# Molecular target: HDAC1 (histone deacetylase 1), wild-type (UniProt Q13547)
# Sequence (Q13547 whole entry): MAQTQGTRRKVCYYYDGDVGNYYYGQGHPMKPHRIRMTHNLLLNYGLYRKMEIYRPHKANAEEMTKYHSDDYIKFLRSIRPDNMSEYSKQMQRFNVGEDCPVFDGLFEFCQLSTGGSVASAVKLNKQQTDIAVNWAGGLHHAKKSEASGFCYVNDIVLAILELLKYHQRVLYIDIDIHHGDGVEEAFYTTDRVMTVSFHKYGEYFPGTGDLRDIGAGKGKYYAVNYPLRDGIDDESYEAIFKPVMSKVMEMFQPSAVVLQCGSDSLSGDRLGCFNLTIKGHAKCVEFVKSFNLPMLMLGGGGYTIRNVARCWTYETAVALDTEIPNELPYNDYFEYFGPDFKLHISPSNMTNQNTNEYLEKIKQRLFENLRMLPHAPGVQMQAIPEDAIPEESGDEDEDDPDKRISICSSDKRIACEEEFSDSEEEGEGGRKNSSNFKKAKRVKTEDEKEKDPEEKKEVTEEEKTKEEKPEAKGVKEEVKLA
substance,measurement,value
"SENP1 catalytically inactive mutant (R630L, K631M)",deacetylase activity of HDAC1 precipitates,expression of SENP1 mutant did not affect HDAC1's deacetylase activity
